The values that follow come from paper PMC7531507.

Test [1] concerns the target cynomolgus monkey GCGR (cynomolgus monkey).
Test [2] concerns the target mouse GCGR (mouse) (UniProt Q61606).
Test [3] addresses cynomolgus monkey GLP-1R (cynomolgus monkey).
The target of test [4] is rat GCGR (rat) (UniProt P30082).
Test [5] deals with mouse GLP-1R (mouse) (UniProt O35659).
Test [6] has as its target human glucagon receptor (GCGR) (human) (UniProt P47871).
Test [7] has as its target rat GLP-1R (rat) (UniProt P32301).
Chain of UniProt P32301 (P32301 22-463): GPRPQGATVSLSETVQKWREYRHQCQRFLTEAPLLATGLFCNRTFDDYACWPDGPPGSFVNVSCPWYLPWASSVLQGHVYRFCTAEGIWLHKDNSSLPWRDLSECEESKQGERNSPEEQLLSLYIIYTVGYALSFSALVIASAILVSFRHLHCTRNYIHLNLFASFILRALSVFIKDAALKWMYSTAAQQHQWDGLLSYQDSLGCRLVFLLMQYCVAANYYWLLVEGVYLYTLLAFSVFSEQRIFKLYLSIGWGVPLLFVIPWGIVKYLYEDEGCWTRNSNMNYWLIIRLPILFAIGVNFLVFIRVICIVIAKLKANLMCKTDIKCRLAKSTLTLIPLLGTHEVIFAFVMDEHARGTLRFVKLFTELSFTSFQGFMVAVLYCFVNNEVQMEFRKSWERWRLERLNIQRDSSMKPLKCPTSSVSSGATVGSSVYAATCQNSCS

Chain of UniProt P30082 (P30082 27-485): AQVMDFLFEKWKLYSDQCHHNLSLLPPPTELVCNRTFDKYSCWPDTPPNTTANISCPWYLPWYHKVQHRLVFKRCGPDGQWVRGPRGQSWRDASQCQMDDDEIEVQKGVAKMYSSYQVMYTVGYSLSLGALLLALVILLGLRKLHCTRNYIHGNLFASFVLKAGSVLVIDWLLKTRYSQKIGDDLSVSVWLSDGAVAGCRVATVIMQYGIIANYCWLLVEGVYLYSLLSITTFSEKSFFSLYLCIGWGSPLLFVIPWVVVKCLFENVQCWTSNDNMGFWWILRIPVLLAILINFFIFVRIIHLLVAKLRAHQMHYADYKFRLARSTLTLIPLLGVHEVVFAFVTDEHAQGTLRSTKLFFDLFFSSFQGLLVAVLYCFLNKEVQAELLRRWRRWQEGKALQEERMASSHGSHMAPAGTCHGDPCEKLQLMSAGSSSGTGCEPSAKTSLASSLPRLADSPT
Chain of UniProt Q61606 (Q61606 27-485): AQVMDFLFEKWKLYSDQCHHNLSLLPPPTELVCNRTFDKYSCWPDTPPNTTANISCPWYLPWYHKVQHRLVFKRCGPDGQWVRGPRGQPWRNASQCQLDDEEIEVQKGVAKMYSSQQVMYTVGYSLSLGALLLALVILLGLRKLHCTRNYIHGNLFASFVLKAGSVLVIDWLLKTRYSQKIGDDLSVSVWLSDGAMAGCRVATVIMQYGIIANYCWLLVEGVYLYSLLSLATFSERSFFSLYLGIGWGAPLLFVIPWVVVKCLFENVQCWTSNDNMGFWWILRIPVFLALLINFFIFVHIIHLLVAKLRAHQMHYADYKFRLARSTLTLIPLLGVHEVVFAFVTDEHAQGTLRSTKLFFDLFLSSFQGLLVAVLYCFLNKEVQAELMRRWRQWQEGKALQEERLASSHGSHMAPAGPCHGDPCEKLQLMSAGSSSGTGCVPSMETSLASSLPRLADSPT
Chain of UniProt O35659 (O35659 22-463): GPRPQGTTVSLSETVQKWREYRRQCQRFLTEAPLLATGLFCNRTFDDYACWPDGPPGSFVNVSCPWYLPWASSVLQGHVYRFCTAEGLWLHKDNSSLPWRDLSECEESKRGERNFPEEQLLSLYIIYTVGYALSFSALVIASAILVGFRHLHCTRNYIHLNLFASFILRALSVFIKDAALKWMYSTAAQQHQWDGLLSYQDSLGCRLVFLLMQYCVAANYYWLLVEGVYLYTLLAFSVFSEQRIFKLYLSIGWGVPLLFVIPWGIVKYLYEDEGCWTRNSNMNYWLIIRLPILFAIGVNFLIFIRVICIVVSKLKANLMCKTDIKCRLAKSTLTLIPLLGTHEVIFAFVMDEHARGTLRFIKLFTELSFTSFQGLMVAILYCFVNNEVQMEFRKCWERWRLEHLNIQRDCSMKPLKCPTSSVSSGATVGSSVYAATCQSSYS
Chain of UniProt P47871 (P47871 26-477): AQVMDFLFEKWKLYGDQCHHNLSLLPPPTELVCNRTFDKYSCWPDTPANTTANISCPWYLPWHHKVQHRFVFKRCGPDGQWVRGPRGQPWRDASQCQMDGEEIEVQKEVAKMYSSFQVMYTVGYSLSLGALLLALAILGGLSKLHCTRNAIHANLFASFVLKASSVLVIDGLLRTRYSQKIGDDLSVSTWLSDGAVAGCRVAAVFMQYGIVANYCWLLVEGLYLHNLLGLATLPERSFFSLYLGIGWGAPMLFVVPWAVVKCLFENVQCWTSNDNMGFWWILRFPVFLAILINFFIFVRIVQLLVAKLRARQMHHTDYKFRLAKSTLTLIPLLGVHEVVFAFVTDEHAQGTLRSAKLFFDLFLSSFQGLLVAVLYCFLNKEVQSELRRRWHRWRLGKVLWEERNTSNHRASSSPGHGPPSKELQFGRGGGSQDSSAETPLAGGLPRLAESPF

On to native oxyntomodulin (peptide), for which the EC50 of cAMP in clonal HEK293 cells stably expressing cynomolgus monkey GCGR in test [1] was determined as 0.49 nM. In test [2], this substance returned an EC50 of cAMP in clonal HEK293 cells stably expressing mouse GCGR of 6.31 nM. Also, in test [3], the EC50 of cAMP in clonal HEK293 cells stably expressing cynomolgus monkey GLP-1R was found to be 0.8 nM. Besides, the EC50 of cAMP in clonal HEK293 cells stably expressing rat GCGR in test [4] was determined as 12.7 nM. Besides, the EC50 of cAMP in clonal HEK293 cells stably expressing mouse GLP-1R in test [5] is 1.9 nM. This substance registered an EC50 of cAMP in clonal HEK293 cells stably expressing human GCGR in test [6] of 3.01 nM. The EC50 of cAMP in clonal HEK293 cells stably expressing rat GLP-1R in test [7] is 0.98 nM.
